Measurements taken from patent US12344663B2, “Anti-C3 antibodies and antigen-binding fragments thereof and their uses for treating eye or ocular diseases” (CDR-Life AG, priority 2021, dated 2025).
Read-outs that look alike come from different tables or passages of the source.

B1: Clone I: humanized anti-C3 scFv, VH SEQ ID NO: 20, VL SEQ ID NO: 21; scFv SEQ ID NO: 26 or 27 (antibody, V domains shown)
VH: QVQLVESGGGSVQPGRSLRLSCAASGFTFSNYAMNWVRQAPGKGLEWVAVISYDGSNKYYADSVKGRFTISRDNSKNTLYLQMNSLRAEDTASYYCARAVGYHHARLDPWGCGTSVTVSS
VL: QLVLTQSPSASASLGASVKLTCTLSSAHKTYTIDWYQQQPEKCPRYLMQLKSDGSYTKGSGIPDRFSGSSSGAERYLTISSLQSEDEADYYCGTEGVGGYVFGGGTKLTVLG
modifications: VH; VL
B2: Clone II: humanized anti-C3 scFv, VH SEQ ID NO: 22, VL SEQ ID NO: 23; scFv SEQ ID NO: 28 or 29 (antibody, V domains shown)
VH: QVQLVESGGGSVQPGRSLRLSCAASGFTFSNYAMNWVRQAPGKGLEWVAIINVGGGTNYADSVKGRFTISRDNSKNTLYLQMNSLRAEDTASYYCARAVGYHHARLDPWGCGTSVTVSS
VL: QLVLTQSPSASASLGASVKLTCTLSSAHKTYTIDWYQQQPEKCPRYLMQLKSDGSYTKGSGIPDRFSGSSSGAERYLTISSLQSEDEADYYCGTEGVGGYVFGGGTKLTVLG
modifications: VH; VL

Key:
[1] = test system: Classical Pathway; assay: WEISLAB Complement system Screen, classical pathway MAC (C5b-C9) formation; assay type: biochemical, human; settings: human serum; read-out: IC50 (nM) Classical Pathway MAC deposition
Procedure: To identify antibodies that block all 3 complement pathways, antibodies are screened using an enzyme immunoassay for the qualitative determination of functional classical, lectin and alternative complement pathways in human serum using the WEISLAB® Complement system Screen (Svar Life Science AB, Malmö, Sweden).
To monitor inhibition of the complement system in human serum, the scFv of the invention or the comparator molecules are tested using an enzyme immunoassay for the qualitative determination of functional classical, lectin and alternative complement pathways in human serum using the WEISLAB® Complement system Screen (Svar Life Science AB, Malmö, Sweden), following the supplier's instructions. The amount of C5b-C9 neoantigen generated is proportional to the functional activity of complement pathways. The scFv of the invention and the comparator molecules are tested in a concentration response curve and the IC50 for the inhibition is calculated using the GraphPadPrism software and a non-linear, 4 parameters curve regression.

[2] = biological target: T1, human C3b (Homo sapiens, UniProt P01024); assay: SPR (Biacore T100) binding to human C3b; settings: for kd C3b: off-rate; for ka C3b: on-rate
T1 construct: C3b is derived from native C3 and is the larger of two elements formed by the cleavage of C3
T1 sequence (P01024 23-667 limits assumed): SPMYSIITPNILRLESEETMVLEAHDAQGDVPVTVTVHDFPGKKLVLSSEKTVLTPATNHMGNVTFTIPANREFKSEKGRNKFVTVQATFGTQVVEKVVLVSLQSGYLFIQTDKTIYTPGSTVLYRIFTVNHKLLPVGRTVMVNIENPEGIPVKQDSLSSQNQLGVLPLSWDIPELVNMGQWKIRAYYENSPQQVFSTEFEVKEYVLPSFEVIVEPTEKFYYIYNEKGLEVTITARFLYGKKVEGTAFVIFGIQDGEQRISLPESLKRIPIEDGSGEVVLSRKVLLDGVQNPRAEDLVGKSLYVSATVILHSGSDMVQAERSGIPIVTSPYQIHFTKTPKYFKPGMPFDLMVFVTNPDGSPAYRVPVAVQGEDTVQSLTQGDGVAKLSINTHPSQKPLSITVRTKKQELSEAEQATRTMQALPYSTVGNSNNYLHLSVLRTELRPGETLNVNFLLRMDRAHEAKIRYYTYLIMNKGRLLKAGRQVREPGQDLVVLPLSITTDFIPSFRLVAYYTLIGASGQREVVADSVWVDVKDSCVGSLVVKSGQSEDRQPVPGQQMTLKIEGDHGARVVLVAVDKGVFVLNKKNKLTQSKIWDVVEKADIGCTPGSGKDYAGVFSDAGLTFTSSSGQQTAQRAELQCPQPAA
T1 sequence (P01024 749-1663 limits assumed): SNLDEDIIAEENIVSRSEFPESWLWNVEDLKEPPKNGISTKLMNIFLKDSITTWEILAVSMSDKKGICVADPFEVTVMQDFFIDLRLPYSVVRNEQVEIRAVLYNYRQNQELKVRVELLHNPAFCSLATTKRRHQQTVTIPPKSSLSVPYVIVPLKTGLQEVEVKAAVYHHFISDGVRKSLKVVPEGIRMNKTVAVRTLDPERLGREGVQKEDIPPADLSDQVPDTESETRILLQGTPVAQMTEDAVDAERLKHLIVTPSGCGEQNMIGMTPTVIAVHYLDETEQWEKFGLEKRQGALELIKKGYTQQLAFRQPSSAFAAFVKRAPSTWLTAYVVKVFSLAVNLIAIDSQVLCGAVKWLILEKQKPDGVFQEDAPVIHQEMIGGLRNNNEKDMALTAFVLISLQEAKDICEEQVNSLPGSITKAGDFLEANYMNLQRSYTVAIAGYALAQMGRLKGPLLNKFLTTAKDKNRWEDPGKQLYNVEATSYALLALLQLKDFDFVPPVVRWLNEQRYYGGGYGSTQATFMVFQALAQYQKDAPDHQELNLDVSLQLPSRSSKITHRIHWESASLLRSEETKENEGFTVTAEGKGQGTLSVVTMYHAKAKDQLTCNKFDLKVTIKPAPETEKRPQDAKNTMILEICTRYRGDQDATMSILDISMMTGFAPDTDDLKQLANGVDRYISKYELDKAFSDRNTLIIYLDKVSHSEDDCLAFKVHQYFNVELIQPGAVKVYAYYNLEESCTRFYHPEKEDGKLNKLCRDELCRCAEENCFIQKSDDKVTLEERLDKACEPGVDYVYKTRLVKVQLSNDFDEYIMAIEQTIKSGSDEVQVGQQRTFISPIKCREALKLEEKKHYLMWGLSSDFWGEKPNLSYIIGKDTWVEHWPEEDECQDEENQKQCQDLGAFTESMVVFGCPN
Procedure: (§1) The kinetic parameters of the candidates are determined using a surface plasmon resonance (SPR) and Biacore T100 device. C3 and different variants thereof (Table 19) are immobilized as a ligand on a HC30M SPR sensor chip (XanTec bionanalytics, Germany) using EDC/[…] linking chemistry. Five increasing concentrations of each molecule (analyte) are consecutively injected using the single cycle kinetics (SCK) mode to determine the kinetic parameters. Regeneration between the candidates is done with 10 mM glycine*HCl, 2 M NaCl, pH 3.5. The data is fitted to a 1:1 Langmuir binding model and the kinetic parameters of on-rate (ka), off-rate (kd), and affinity […] were determined.

[3] = test system: Classical Pathway (CP); assay: Hemolytic assay, antibody-sensitized sheep erythrocytes in human serum; assay type: cell-based; settings: 1% human serum, read-out: IC50 (nM) Classical Pathway Hemolysis
Procedure: Anti-C3 antibody fragments are evaluated for their ability to inhibit hemolysis of antibody-sensitized sheep erythrocytes mediated by Classical Pathway (CP) or Alternative Pathway (AP) activation in human serum. For this, sheep erythrocytes are coated with hemolysin (rabbit anti-sheep antibodies) on the surface to activate the complement system in human serum resulting in C3 activation and subsequent formation of the Membrane Attack Complex (MAC). The MAC assembles on the membrane of sheep erythrocytes leading to cell lysis. The level of hemoglobin released from lysed erythrocytes is measured at OD 414 nm and is proportional to the complement activity present in the serum sample. For determining the ability of anti-C3 molecules to inhibit CP activity, human serum was diluted in GVB++ buffer (Complement technology) for optimal activation of the Classical Pathway (requires calcium and magnesium ions). Serial dilutions of anti-C3 test samples are prepared from this solution with a final concentration of 1% human serum for each datapoint (prior to addition to erythrocytes). The samples are incubated with antibody-sensitized sheep erythrocytes for 1 hour at 37° C. and released hemoglobin is measured in the supernatant after a centrifugation step.

[4] = biological target: T2, human C3 R102G (Homo sapiens, UniProt P01024, R102G); assay: SPR (Biacore T100) binding to C3 SNP2 R102G; settings: for Kd: Table 20, SPR; for kd C3 SNP2 R102G: off-rate; for ka C3 SNP2 R102G: on-rate
T2 construct: 6×His (N); made in house; host or cells: CHO (ExpiFectamine CHO Expression Kit)
T2 sequence (P01024 23-1663 R102G): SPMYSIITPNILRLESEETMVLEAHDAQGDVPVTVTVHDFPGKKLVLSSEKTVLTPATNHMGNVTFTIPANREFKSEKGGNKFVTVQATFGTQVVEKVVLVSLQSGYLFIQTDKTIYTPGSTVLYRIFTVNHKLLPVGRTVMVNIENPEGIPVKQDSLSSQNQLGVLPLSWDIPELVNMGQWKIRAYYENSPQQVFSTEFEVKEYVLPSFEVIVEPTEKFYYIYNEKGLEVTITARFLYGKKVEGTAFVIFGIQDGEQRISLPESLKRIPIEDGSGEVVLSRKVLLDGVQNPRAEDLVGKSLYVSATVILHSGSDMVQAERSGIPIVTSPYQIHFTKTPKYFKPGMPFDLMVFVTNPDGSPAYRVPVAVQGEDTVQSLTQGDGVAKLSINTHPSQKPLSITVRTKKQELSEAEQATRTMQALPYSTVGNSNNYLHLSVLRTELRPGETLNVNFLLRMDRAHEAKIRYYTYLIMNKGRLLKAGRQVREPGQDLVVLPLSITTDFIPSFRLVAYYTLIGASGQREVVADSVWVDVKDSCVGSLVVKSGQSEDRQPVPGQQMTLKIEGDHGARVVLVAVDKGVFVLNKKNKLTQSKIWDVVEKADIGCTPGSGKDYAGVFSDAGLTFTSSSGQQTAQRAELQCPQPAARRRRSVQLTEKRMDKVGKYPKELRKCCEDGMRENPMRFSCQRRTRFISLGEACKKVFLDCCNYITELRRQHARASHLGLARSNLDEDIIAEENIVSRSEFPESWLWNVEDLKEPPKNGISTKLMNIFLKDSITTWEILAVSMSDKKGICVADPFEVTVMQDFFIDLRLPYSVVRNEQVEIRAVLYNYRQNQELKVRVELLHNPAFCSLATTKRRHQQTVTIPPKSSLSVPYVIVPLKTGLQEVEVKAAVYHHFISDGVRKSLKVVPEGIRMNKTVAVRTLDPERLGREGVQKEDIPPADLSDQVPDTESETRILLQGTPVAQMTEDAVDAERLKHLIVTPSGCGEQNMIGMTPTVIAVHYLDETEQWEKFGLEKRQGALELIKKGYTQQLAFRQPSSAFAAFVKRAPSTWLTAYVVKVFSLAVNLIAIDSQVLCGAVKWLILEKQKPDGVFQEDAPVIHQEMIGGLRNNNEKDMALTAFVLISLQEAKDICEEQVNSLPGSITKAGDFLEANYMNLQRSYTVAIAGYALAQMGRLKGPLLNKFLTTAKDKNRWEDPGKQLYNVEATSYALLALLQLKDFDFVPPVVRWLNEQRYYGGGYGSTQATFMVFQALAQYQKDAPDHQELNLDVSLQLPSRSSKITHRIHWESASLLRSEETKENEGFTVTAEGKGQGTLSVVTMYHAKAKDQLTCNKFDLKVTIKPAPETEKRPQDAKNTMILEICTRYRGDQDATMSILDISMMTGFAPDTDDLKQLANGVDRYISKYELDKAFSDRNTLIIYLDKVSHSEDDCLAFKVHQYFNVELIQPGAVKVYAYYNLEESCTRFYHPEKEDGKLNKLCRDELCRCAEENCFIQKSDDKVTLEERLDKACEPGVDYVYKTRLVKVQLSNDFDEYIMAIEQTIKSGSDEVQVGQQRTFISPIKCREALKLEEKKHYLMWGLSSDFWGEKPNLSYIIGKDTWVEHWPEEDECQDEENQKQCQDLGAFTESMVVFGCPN
Procedure: as §1
Single nucleotide polymorphism (SNP) in C3 has been observed across the population and certain SNPs were identified in genome-wide association studies (GWAS) to correlate with an increased risk to develop AMD. Common SNP variants include P314L, which occurs in approximately 23.3% of population, and R102G, which has been reported to occur in approximately 26-29% of population. Very rare variants, which occur in less that 2.5% of the population include K155Q, R735W, S1619W, K65Q and R161W.
The inventors therefore measured the binding affinity of the scFv of the invention to the most commonly occurring C3 forms, i.e., R102G and P314L. Wild-type human C3, human C3 P314L and human C3 R102G are expressed in the CHO cell line using the ExpiFectamine CHO Expression Kit (Thermo Fisher Scientific). Proteins are expressed with N-terminal 6×His tag and purified using a HisTrap Excel HP column (GE Healthcare), followed by a size-exclusion chromatography step (SUPERDEX®20010/300GL; GE Healthcare).

[5] = biological target: human C3 (Homo sapiens, UniProt P01024); assay: SPR (Biacore T100) binding to human C3; settings: for kd C3: off-rate; for ka C3: on-rate
human C3, sequence (P01024 23-1663): as the sequence (P01024 23-1663 R102G) above, with G80R counted along it
Procedure: as §1

[6] = Storage stability at 150 mg/ml, chemical degradation by IEX-HPLC; assay type: physicochemical; settings: for Starting charge purity (IEX-HPLC): before storage; for Storage stability, IEX 4 weeks at 25° C. [D %] / Storage stability, IEX 4 weeks at 40° C. [D %]: decrease versus start
Procedure: Clone I, clone II and clone III are tested for storage stability. Samples are concentrated to 150 mg/ml (Vivaspin20 centrifugal device, 5 kDa MWCO at 3800×g) and stored at 25° C. and 40° C. for up to 4 weeks. Samples are analyzed for oligomerization (SE-HPLC) and chemical degradation (IEX-HPLC). The starting monomeric purity as determined by SE-HPLC was 99.96% for each clone. The starting charge purity, as determined by IEX-HPLC was 98.07%, 97.16% and 96.76%, respectively for clone I, II and III.

[7] = biological target: T3, recombinant C3 (wild-type human C3) (Homo sapiens, UniProt P01024); assay: SPR (Biacore T100) binding to recombinant C3; settings: for Kd: Table 20, SPR; for kd recombinant C3: off-rate; for ka recombinant C3: on-rate
T3 construct: 6×His (N); made in house; host or cells: CHO (ExpiFectamine CHO Expression Kit)
T3 sequence (P01024 23-1663): as the sequence (P01024 23-1663 R102G) above, with G80R counted along it
Procedure: as §1
Proteins are expressed with N-terminal 6×His tag and purified using a HisTrap Excel HP column (GE Healthcare), followed by a size-exclusion chromatography step (SUPERDEX®20010/300GL; GE Healthcare).

[8] = biological target: cyno C3; assay: SPR (Biacore T100) binding to cyno C3; parameters: species or system cynomolgus (Macaca fascicularis); settings: for Kd: Table 20, SPR; for kd cyno C3: off-rate; for ka cyno C3: on-rate
Procedure: as §1

[9] = test system: Alternative Pathway (AP); assay: Hemolytic assay, rabbit erythrocytes in human serum; assay type: cell-based; settings: MgEGTA, read-out: IC50 (nM) Alternative Pathway Hemolysis
Text: The Alternative Pathway (AP) in human serum samples is spontaneously activated by rabbit erythrocytes. Since AP activation requires higher concentrations of serum, the Classical Pathway needs to be blocked with MgEGTA to chelate Ca2+ ions (AP only requires Mg2+ ions). AP activation results in C3 activation and subsequent formation of the Membrane Attack Complex (MAC). The MAC assembles on the membrane of rabbit erythrocytes leading to cell lysis. The level of hemoglobin released from lysed erythrocytes is measured at OD 414 nm and is proportional to the complement activity present in the serum sample.

[10] = Table 19, SPR, read-out: Affinity human C3b
[11] = Table 20, SPR, read-out: KD (nM) C3b
[12] = Table 19, SPR, read-out: Affinity human C3
[13] = Table 20, SPR, read-out: KD (nM) C3

Row | Molecule | IC50 [1] [nM] | Kd [2, 10] [nM] | Kd [2, 11] [nM] | kd C3b [2] [s⁻¹] | ka C3b [2] [M⁻¹ s⁻¹] | IC50 [3] [nM] | Kd [4] [nM] | kd C3 SNP2 R102G [4] [s⁻¹] | ka C3 SNP2 R102G [4] [M⁻¹ s⁻¹] | Kd [5, 12] [nM] | Kd [5, 13] [nM] | kd C3 [5] [s⁻¹] | ka C3 [5] [M⁻¹ s⁻¹] | Starting charge purity (IEX-HPLC) [6] [%] | Storage stability, IEX 4 weeks at 25° C. [D %] [6] [D %] | Storage stability, IEX 4 weeks at 40° C. [D %] [6] [D %] | Kd [7] [nM] | kd recombinant C3 [7] [s⁻¹] | ka recombinant C3 [7] [M⁻¹ s⁻¹] | Kd [8] [nM] | further results
1 | B1 | 79 | 0.149 | 0.149 | 4.8e-05 | 320000 | 74 | 0.135 | 4.5e-05 | 330000 | 0.152 | 0.152 | 4.7e-05 | 310000 | 98.07 | 1.1 | 2.4 | 0.148 | 4.9e-05 | 330000 | 0.267 | Kd ([2]; Table 16, read-out: C3b (Kd)): 0.14 nM; Kd ([5]; Table 16, read-out: C3 (Kd)): 0.16 nM; kd cyno C3 [8]: 6.3e-05 s⁻¹; ka cyno C3 [8]: 240000 M⁻¹ s⁻¹; IC50 [9]: 705 nM
2 | B2 | 77 | 0.05 | 0.05 | 1.2e-05 | 250000 | 69 | 0.021 | 7e-06 | 330000 | 0.022 | 0.022 | 5.5e-06 | 250000 | 97.16 | 0.5 | 3.3 | 0.035 | 1e-05 | 300000 | 0.07 | kd cyno C3 [8]: 1.5e-05 s⁻¹; ka cyno C3 [8]: 210000 M⁻¹ s⁻¹; IC50 [9]: 668 nM
